Results as given in publication PMC4465122 (EBioMedicine, 2015).
Residue numbers refer to the chain shown, from its start. In names and notes the source's numbering stands.

B1: recombinant human prolidase (rhPEPD) (enzyme)
chain: MAAATGPSFWLGNETLKVPLALFALNRQRLCERLRKNPAVQAGSIVVLQGGEETQRYCTDTGVLFRQESFFHWAFGVTEPGCYGVIDVDTGKSTLFVPRLPASHATWMGKIHSKEHFKEKYAVDDVQYVDEIASVLTSQKPSVLLTLRGVNTDSGSVCREASFDGISKFEVNNTILHPEIVECRVFKTDMELEVLRYTNKISSEAHREVMKAVKVGMKEYELESLFEHYCYSRGGMRHSSYTCICGSGENSAVLHYGHAGAPNDRTIQNGDMCLFDMGGEYYCFASDITCSFPANGKFTADQKAVYEAVLRSSRAVMGAMKPGVWWPDMHRLADRIHLEELAHMGILSGSVDAMVQAHLGAVFMPHGLGHFLGIDVHDVGGYPEGVERIDEPGLRSLRTARHLQPGMVLTVEPGIYFIDHLLDEALADPARASFLNREVLQRFRGFGGVRIEEDVVVTDSGIELLTCVPRTVEEIEACMAGCDKAFTPFSGPK
B2: rhPEPD^G278D, enzymatically inactive mutant of recombinant human prolidase (enzyme)
chain: B1 chain with G278D

Target: the molecule itself
Test: cross-linking

Protein	stoichiometry N
B1	2
B2	2
